Patent US20250154277A1 (CONCEPT TO MEDICINE BIOTECH, published 2025)
Like-named read-outs stand apart in the source and are kept apart here.

B1: 113H5 chimeric antibody (antibody, V domains shown)
VH: DVQLQESGPGLVKPSQSLSLTCSVTGYSITSGYYWNWIRQFPGNKLEWMGYINSDGSNNYNPSLKNRISITRDTSKNQFFLKLNSVTTEDTATYYCAREEYDYWFAYWGQGTLVTVSA
VL: DIVMTQSQKFMSTSVGDRVSVTCKASQNVGTNVAWYQQKPGQSPKALIYSASNRYSGVPDRFTGSGFGTDFTLTISNVQSEDLTEYFCQQYNSYPYTFGGGTNLEIK
notes: chimeric mAb
B2: Hu14G12-28 (antibody, V domains shown)
VH: QVQLVQSGAEVKKPGASVKVSCKASGYAFSSSWMNWVRQAPGQGLEWMGRIYREDGHTNYNGKFKGRVTMTADKSITTAYMELSRLRSDDTAVYYCANGGAMDYWGQGTLVTVSS
VL: DIQMTQSPSSLSASVGDRVTITCRASQDISNYLNWYQQKPGKAPKLLIYYTSRLHSGVPSRFSGSGSGTDYTFTISSLQPEDIATYFCQQDNTLPWTFGGGTKVEIK
notes: humanized; also called parental Hu14G12-28 antibody
B3: Hu14G12-28-88# (antibody, V domains shown)
VH: QVQLVQSGAEVKKPGASVKVSCKASGYAFSSSWMNWVRQAPGQGLEWMGRIYREDGHTNYNGKFKGRVTMTADKSITTAYMELSRLRSDDTAVYYCANGGAMDYWGQGTLVTVSS
VL: DIQMTQSPSSLSASVGDRVTITCRASQDISNYLNWYQQKPGKAPKLLIYYTSRLHSGVPSRFSGSGSGTDYTFTISSLQPEDIATYFCGNDNTLPWTFGGGTKVEIK
B4: Hu14G12-28-108# (antibody, V domains shown)
VH: QVQLVQSGAEVKKPGASVKVSCKASGYAFSSSWMNWVRQAPGQGLEWMGRIYREDGHTNYNGKFKGRVTMTADKSITTAYMELSRLRSDDTAVYYCANGGAMDYWGQGTLVTVSS
VL: DIQMTQSPSSLSASVGDRVTITCRASQDISNYLNWYQQKPGKAPKLLIYYTSRLHSGVPSRFSGSGSGTDYTFTISSLQPEDIATYFCANDNTLPWTFGGGTKVEIK

Legend:
[1] = molecular target: T1, human 5T4-His protein (human, UniProt Q13641 32-355); assay: competitive ELISA, coated human 5T4, vs naptumomab-biotin
T1 construct: also called recombinant 5T4 protein (human 5T4-his tag); human 5T4 protein; not shown: His tag
T1 sequence (looked up): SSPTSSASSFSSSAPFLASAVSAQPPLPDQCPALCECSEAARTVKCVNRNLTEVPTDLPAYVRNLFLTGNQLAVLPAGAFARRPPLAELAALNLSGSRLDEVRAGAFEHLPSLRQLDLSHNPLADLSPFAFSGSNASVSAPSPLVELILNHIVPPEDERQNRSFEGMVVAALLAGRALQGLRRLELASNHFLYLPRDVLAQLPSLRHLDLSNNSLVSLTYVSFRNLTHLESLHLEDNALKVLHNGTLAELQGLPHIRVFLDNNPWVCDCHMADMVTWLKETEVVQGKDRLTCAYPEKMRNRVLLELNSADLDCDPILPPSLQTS

[2] = molecular target: T1, human 5T4-His protein; assay: ELISA, coated human 5T4-His
[3] = molecular target: T2, human 5T4 expressed on cells (human, UniProt Q13641 32-420); assay: flow cytometry, HEK293-hu5T4 cells
T2 construct: whole, on cells; also called CHOK1-hu5T4; CHO-K1-expressing human 5T4
T2 sequence (looked up): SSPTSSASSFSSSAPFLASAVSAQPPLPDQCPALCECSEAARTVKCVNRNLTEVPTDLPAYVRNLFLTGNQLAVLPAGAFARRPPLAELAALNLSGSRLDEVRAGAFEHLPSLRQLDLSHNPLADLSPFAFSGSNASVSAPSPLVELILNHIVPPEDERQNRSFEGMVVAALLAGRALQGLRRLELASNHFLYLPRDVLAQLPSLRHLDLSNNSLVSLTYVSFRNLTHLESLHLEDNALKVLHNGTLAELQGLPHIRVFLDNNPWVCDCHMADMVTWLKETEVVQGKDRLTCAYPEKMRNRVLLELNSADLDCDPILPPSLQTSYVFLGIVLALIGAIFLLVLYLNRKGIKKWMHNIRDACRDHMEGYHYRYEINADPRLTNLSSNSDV

[4] = molecular target: T2, human 5T4 expressed on cells; assay: flow cytometry, CHOK1-hu5T4 cells
[5] = molecular target: T1, human 5T4-His protein; assay: competitive ELISA, coated human 5T4, vs naptumomab-biotin; remark: listed apart in the source
[6] = molecular target: T2, human 5T4 expressed on cells; assay: flow cytometry, CHOK1-hu5T4 cells; remark: listed apart in the source
[7] = molecular target: T1, human 5T4-His protein; assay: ELISA, coated human 5T4-His; remark: listed apart in the source
[8] = molecular target: T1, human 5T4-His protein; assay: competitive ELISA, coated human 5T4, vs naptumomab-biotin; remark: listed apart in the source
[9] = molecular target: T1, human 5T4-His protein; assay: as above; remark: listed apart in the source
[10] = molecular target: T1, human 5T4-His protein; assay: as above; remark: listed apart in the source
[11] = molecular target: T1, human 5T4-His protein; assay: ELISA, coated antigen
[12] = molecular target: T3, cynomolgus 5T4 protein (cynomolgus monkey, UniProt Q4R8Y9 35-355, limits assumed); assay: ELISA, coated antigen
T3 construct: Coated protein in ELISA; the screening step names a cyno 5T4-His protein; also called cyno 5T4; recombinant cyno 5T4-His protein
T3 sequence (looked up): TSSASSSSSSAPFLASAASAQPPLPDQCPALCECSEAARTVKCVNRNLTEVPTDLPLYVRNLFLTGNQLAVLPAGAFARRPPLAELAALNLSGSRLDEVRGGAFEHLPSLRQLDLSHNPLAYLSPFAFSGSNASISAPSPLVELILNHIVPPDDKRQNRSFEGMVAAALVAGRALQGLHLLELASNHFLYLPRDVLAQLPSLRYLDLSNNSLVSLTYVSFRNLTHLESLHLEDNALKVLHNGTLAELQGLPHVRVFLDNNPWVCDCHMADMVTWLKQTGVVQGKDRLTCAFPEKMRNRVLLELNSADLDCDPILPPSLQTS

[13] = molecular target: T1, human 5T4-His protein; assay: SPR Biacore, Protein A capture
Method: (§1) The binding of the chimeric mAbs from these clones against recombinant 5T4 protein (human 5T4-his tag) was tested with Biacore using a capture method. The mAbs were captured using Protein A chip. A serial dilution of human 5T4-his tag protein was injected over captured antibody for 2-3 mins at a flow rate of 30 μl/min. The antigen was allowed to dissociate for 360-1000 s. All the experiments were carried out on a Biacore T200. Data analysis was carried out using Biacore T200 evaluation software.

[14] = molecular target: T2, human 5T4 expressed on cells; assay: flow cytometry, HEK293-hu5T4 cells; remark: listed apart in the source
Method: (§2) To evaluate the binding property of affinity maturated antibodies to surface 5T4, tested antibodies were analyzed for their binding to CHOK1-hu5T4, HEK293-hu5T4 or MCF-7 cells by FACS. […] After wash by FACS buffer, PE conjugated-anti-human IgG antibody was added to each well and incubated at 4° C. for 30 minutes. MFI of PE was evaluated by MACSQuant Analyzer 16.

[15] = molecular target: T1, human 5T4-His protein; assay: ELISA, coated 5T4-His
Method: To evaluate the binding activity of 14G12 humanized antibodies to human 5T4, the 14G12 chimeric antibody along with 14G12 humanized mAbs were subjected to ELISA test.
Briefly, microtiter plates were coated with human 5T4-His protein at 1 μg/ml in PBS, 100 μl/well at 4° C. overnight, then blocked with […]. Serial dilutions of antibodies were added to each well and incubated for 1 hour at 37° C. The plates were washed with PBS/Tween and then incubated with Goat Anti-Human IgG-HRP for 30 mins at 37° C. After washing, the plates were developed with TMB substrate and analyzed by spectrophotometer at OD 450 nm. As shown in FIG. 10 and Table 6, most of the humanized antibodies bound to human 5T4 at high activity.

[16] = molecular target: T1, human 5T4-His protein; assay: ELISA, coated human 5T4-His; remark: listed apart in the source
Method: (§3) Briefly, microtiter plates were coated with human 5T4-His protein at 2 μg/ml in PBS, 30 μl/well at 4° C. overnight, then blocked with 5% PBS/Milk. Serial dilutions of antibodies were added to each well and incubated for 1 hour at room temperature. The plates were washed with PBS/Tween and then incubated with Goat Anti-Human IgG-HRP for 50 mins at room temperature. After washing, the plates were developed with TMB substrate and analyzed by spectrophotometer at OD 450 nm.

[17] = molecular target: T1, human 5T4-His protein; assay: SPR Biacore, Protein A capture; remark: listed apart in the source
Method: The binding of the 14G12 humanized antibodies to recombinant 5T4 protein (human 5T4-his tag) was tested with Biacore using a capture method. The mAbs were captured using Protein A chip. Serial dilution of human 5T4-his tag protein was injected over captured antibody for 120 s-180 s at a flow rate of 30 μl/min. The antigen was allowed to dissociate for 360 s-1000 s. All the experiments were carried out on a Biacore T200. Data analysis was carried out using the Biacore T200 evaluation software.

[18] = molecular target: T1, human 5T4-His protein; assay: ELISA, coated human 5T4-His; remark: listed apart in the source
Method: as §3

[19] = molecular target: T1, human 5T4-His protein; assay: SPR Biacore, Protein A capture; remark: listed apart in the source
Method: as §1, with “binding affinity” for “binding”, “tested antibodies” for “the chimeric mAbs from these clones”, “antibodies” for “mAbs”, “3” for “2-3”, “300” for “360-1000”

[20] = molecular target: T2, human 5T4 expressed on cells; assay: flow cytometry, CHOK1-hu5T4 cells; remark: listed apart in the source
Method: as §2

[21] = molecular target: T2, human 5T4 expressed on cells; assay: flow cytometry, MCF-7 cells
Method: as §2

[22] = molecular target: T2, human 5T4 expressed on cells; assay: flow cytometry, CHOK1-hu5T4 cells; remark: listed apart in the source
Method: as §2

[23] = molecular target: T2, human 5T4 expressed on cells; assay: flow cytometry, HEK293-hu5T4 cells; remark: listed apart in the source
Method: as §2

[24] = molecular target: T1, human 5T4-His protein; assay: SPR Biacore, Protein A capture; remark: listed apart in the source

Molecule	EC50 (read off the curve) [14] [nM]	EC50 (read off the curve) [16] [nM]	EC50 (read off the curve) [18] [nM]	Kd [19] [nM]	koff [19] [s⁻¹]	kon [19] [M⁻¹ s⁻¹]	EC50 (read off the curve) [20] [nM]	EC50 (read off the curve) [21] [nM]	EC50 (read off the curve) [22] [nM]	EC50 (read off the curve) [23] [nM]	fold increase of binding affinity against the parental Hu14G12-28 [24] [fold]	other results
naptumomab (antibody portion of naptumomab (NeoTX) that targets 5T4)	–	–	–	–	–	–	–	–	–	–	–	IC50 (read off the curve) [1]: 5 nM; EC50 (read off the curve) [2]: 0.2 nM; EC50 (read off the curve) [3]: 2 nM; EC50 (read off the curve) [4]: 2 nM; IC50 (read off the curve) [5]: 3 nM; EC50 (read off the curve) [6]: 1 nM; EC50 (read off the curve) [7]: 0.1 nM; IC50 (read off the curve) [8]: 4 nM; IC50 (read off the curve) [9]: 6 nM
B1	–	–	–	–	–	–	–	–	–	–	–	IC50 (read off the curve) [10]: ~6 nM; EC50 [11]: 0.52 nM; EC50 [12]: 0.82 nM; Kd [13]: 0.552 nM; koff [13]: 0.000192 s⁻¹; kon [13]: 348000 M⁻¹ s⁻¹
B2	~2	~0.2	~0.1	4.09	0.000738	180000	~2	~0.2	~1	~2	–	EC50 [15]: 0.01 µg/mL; Kd [17]: 2.42 nM; koff [17]: 0.000714 s⁻¹; kon [17]: 295000 M⁻¹ s⁻¹
B3	–	~0.2	–	0.433	8.28e-05	191000	~2	~0.3	–	~2	9.45	–
B4	~2	–	~0.1	0.552	0.000101	183000	–	~0.3	~1	–	7.41	–
